Legend:
purified protein [1] = substrate: O=C1C=CC(=O)C(Cl)=C1; test: purified protein; conditions: pH 5.0; 30.0 °C
purified protein [2] = substrate: O=C1C=CC(=O)C=C1; test: purified protein; conditions: pH 4.0; 30.0 °C

B1: recPDH1 (recombinant pyranose dehydrogenase PDH1) (Macropsalliota meleagris) (protein)
chain: AITYQHPDDLPSGVDYDFIVAGGGTAGLVVASRLSENSNWKVLVIEAGPSNKDAFVTRVPGLASTLGAGSPIDWNYTTIPQDGLDGRSLDYPRAKILGGCSTHNGMVYTRGSKDDWNSWAGIIGDQGLGWDSILPAIKKAEKFTQDFTDQSVKGHIDPSVHGFDGKLSVSAAYSNISFNDLLFETTKELNAEFPFKLDMNDGKPIGLGWTQYTIDNHAERSSSATSYLESTGDNVHVLVNTLVTRVLSASGNGTDFRKVEFAVDANSPKKQLEAKKEVIVAGGVIASPQILMNSGIGERKVLQAVGIDTLIDNPSVGKNLSDQGATSVMFDTTLPSTDFDVDAALTEWTNSHTGPLARGARLNHLTFVRLPDDKLNGQDPSSGKNSPHIEFQFAQITPQVPTLGVPKQAPLPAANSYRLLLQLAVVNLYSISRGSISLSDNNPFTYPLIDLNMFKEDIDIAILREGIRSAGRMFSSKAFKNSVNKFVYPPADATSDEDLDAFLRSSTFSYVHGVGTLSMSPKGASWGVVNPDFKVKGTSGLRVVDASVIPHAPAAHTQLPVYAFAEYASALIAKSYN
- Km (purified protein [1]): 620 ± 110 µM
- kcat/Km (purified protein [1]): 20900 M⁻¹ s⁻¹
- Km (purified protein [2]): 1380 ± 280 µM
- kcat/Km (purified protein [2]): 54400 M⁻¹ s⁻¹

Reference: PMC3315643
